Target: full-length Measles virus hemagglutinin (H) on transfected HEK293T cells (Measles virus, strain IC323, UniProt Q786F2)
Test: flow cytometry on cells

Sequence of full-length Measles virus hemagglutinin (H) on transfected HEK293T cells (Q786F2 whole entry): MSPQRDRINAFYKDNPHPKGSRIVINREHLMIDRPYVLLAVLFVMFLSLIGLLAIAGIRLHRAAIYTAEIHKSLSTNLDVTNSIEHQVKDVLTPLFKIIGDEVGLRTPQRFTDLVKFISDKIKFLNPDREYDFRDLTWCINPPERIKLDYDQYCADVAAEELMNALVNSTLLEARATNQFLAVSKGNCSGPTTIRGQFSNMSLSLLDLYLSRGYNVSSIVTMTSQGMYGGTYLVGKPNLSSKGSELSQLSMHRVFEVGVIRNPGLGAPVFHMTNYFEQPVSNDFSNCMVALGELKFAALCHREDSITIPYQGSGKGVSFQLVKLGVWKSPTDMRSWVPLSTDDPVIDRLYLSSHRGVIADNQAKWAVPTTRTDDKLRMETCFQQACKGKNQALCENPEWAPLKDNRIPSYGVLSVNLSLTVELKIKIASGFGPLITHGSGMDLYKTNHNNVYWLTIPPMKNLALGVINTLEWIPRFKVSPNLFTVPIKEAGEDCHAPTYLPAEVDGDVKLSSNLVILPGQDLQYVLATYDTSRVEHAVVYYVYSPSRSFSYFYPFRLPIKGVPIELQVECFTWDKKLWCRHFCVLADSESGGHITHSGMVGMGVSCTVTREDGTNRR

B1: human anti-MeV H monoclonal antibody 1C02 (IgG1) (antibody, V domains shown)
VH: EVQLLESGAEVKKPGSSVKVSCKASGGTFSSYGISWVRQAPGQGLEWMGGIIPIFGTANYAQKFRGRVTITADKSTSTAYMELSSLRSEDTAVYYCARERITVAGINYYYGMDVWGQGTTVTVSS
VL: RPVLTQPPSVSGAPGQRVTISCTGSSSNIGAGYDVHWYQQLPGTAPKLLIYGDSNRPSGVPDRFSGSKSGTSASLAITGLQAEDEADYYCQSYDSSLSGVVFGGGTKLTVL
- binding result: binds

B2: human anti-MeV H monoclonal antibody 4D08 (IgG1) (antibody, V domains shown)
VH: QMQLVQSGAEVKKPGASVKVSCKASGYTFTSYAMHWVRQAPGQRLEWMGWINAGNGKTEYSQRFQGRVTITRDTSASTVYMELNSLRSEDTAVYFCARDAYDFWSGYGNWGSNYYYFYMDAWGKGTTVTVSS
VL: EIVMTQSPPSLSASVGDRVTITCRASQSINYYLNWYQQKPGKAPKLLIYAASGLQSGVPSRFSGSGSGTDFTLTISSLQPEDLATYYCQQTYSTPVTFGQGTKLEII
- binding result: binds

— publication PMC13374049 (Cell host & microbe, 2026)
